Non-standard residues stand in square brackets, D forms with d. Bpa = N[C@@H](Cc1ccc(C(=O)c2ccccc2)cc1)C(=O)O; d2Nal = N[C@H](Cc1ccc2ccccc2c1)C(=O)O; pGlu = O=C1CC[C@@H](C(=O)O)N1; DO3A10CM = not defined here; Ampt4 = not defined here; azaGly = NNC(=O)O

We go through 7 molecules from patent US20120045393A1 (priority 2009, published 2012).

The labels stand for the following.
B1: BRU-3072 (peptide)
peptide: XRWSHXWXXX
modifications: N-terminal DO3A10CM; Dnal2 at 1; Darg at 6; Bpa4 at 8; Thz at 9; azaGly-NH2 at 10
B2: BRU-3081 (peptide)
peptide: XRWSHXWXPX
modifications: N-terminal DO3A10CM; Dnal2 at 1; Darg at 6; Bpa4-psi(CH2N)-Pro reduced amide isostere at 8-9; azaGly-NH2 at 10
B3: BRU-2996 (peptide)
peptide: XRWSHXWXXX
modifications: N-terminal DO3A10CM; Dnal2 at 1; Darg at 6; Bpa4 at 8; Pip at 9; azaGly-NH2 at 10
B4: BRU-2993 (peptide)
peptide: XRWSHXWXXX
modifications: N-terminal DO3A10CM; Dnal2 at 1; Darg at 6; Bpa4 at 8; Aze at 9; azaGly-NH2 at 10
B5: BRU-2995 (peptide)
peptide: DO3A10CM-[d2Nal]RWSH[dR]W[Bpa][Ampt4][azaGly]-NH2
modifications: reading uncertain; also: printed as DO3A10CM-Dnal2-Arg-Trp-Ser-His-Darg-Trp-Bpa4-Ampt4-azaGly-NH2
B6: BRU-2994 (peptide)
peptide: XRWSHXWXXX
modifications: N-terminal DO3A10CM; Dnal2 at 1; Darg at 6; Bpa4 at 8; Flp4 at 9; azaGly-NH2 at 10

The first assay deals with LHRH receptor (LHRH binding sites) on EFO-27 human ovarian cancer cells (human). As to the kind of experiment: competition with [125I-Tyr8]BRU-2477, EFO-27 cells.
Usually EC50 stands for the concentration needed to bring the measured effect to its halfway point. A lower EC50 goes with an effect from little substance. On to B1, for which the concentration giving a half-maximal response (EC50) was 0.16 µM.
For the molecule B2, the EC50 was 0.3 µM.
For B3, the EC50 worked out at 0.35 µM.
B4 came in with an EC50 of 0.38 µM. This EC50 and that of the molecule before are within 1.5-fold of each other.
With B5, the EC50 worked out at 0.41 µM.
The molecule B6 came in with an EC50 of 0.6 µM.

The target in another assay is LHRH binding sites on EFO-27 human ovarian cancer cells (human). The assay is described as follows: competition with [125I-Tyr8]BRU-2477 on EFO-27 cells.
For the molecule [pGlu]HWSH[dR]WYP[azaGly]-NH2 [BRU-2477], the EC50 came to 0.74 µM.
The molecule B1 had an EC50 of 0.16 µM and a fold improved binding against the Pro9 analog (BRU-2813) of 2.5 fold.
Consider B3, for which the EC50 was determined as 0.35 µM.
In turn, B4 returned an EC50 of 0.38 µM.
Consider B5, for which the EC50 stood at 0.41 µM.
As to B6, the EC50 came to 0.6 µM.

In the next assay the target is LHRH receptor (LHRH binding sites) on EFO-27 human ovarian cancer cells (human). The assay is described as follows: competition with [125I-Tyr8]BRU-2477 for binding to EFO-27 cells.
[pGlu]HWSH[dR]WYP[azaGly]-NH2 [BRU-2477] came in with a 50% effective concentration (EC50) of 0.84 µM.
With B1, the EC50 is 0.16 µM.
Consider B2, for which the EC50 was determined as 0.3 µM.
In turn, B3 yielded an EC50 of 0.35 µM. This EC50 and that of the molecule before are within 1.5-fold of each other.
For B4, the EC50 was found to be 0.38 µM.
Same read-out and setting: the same measure for B5: 0.41 µM; for B6: 0.6 µM.
